This series addresses Staphylococcal enterotoxin A (SEA) (Staphylococcus aureus, UniProt P0A0L2 25-257).

Staphylococcal enterotoxin A (SEA), sequence (P0A0L2 25-257): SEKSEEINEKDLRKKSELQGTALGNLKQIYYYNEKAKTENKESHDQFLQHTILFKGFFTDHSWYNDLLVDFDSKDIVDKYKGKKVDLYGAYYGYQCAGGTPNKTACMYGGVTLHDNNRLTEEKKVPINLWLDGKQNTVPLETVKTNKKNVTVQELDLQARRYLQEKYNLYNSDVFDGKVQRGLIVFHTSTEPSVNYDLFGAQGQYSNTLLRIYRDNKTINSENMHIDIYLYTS

B1: C6G5C6-apt (AgNC template) (structured_DNA)
DNA: CCCCCCGGGGGCCCCCCAGCAGCACAGAGGTCAGATGTACTTATGCATTTCCTCCCACGATCTTATTTGAGAGTGACCCTATGCGTGCTACCGTGAA
For B1, the binding result is “binds”.

For the origin of these results see article PMC7023026, “A Label-Free Fluorescent Aptasensor for Detection of Staphylococcal Enterotoxin A Based on Aptamer-Functionalized Silver Nanoclusters”.
